According to patent publication US20090104177A1, “PEPTIDES FOR INHIBITING THE INTERACTION OF PROTEIN KINASE A AND PROTEIN KINASE A ANCHOR PROTEINS” (FORSCHUNGSVERBUND BERLIN E.V., priority 2004, published 2009):
No end group written: not given here.

Assays:
[1] = target: T1, regulatory RIIβ subunits of PKA (Rattus norvegicus, UniProt P12369); assay: RII overlay of membrane-bound (SPOT) peptides, radiolabelled RIIβ as probe, densitometry; type: binding; conditions: in words
T1 construct: Prof; Dr. Friedrich W. Herberg, University of Kassel, Germany (obtained from an academic laboratory, not a vendor)
T1 sequence (P12369 whole entry): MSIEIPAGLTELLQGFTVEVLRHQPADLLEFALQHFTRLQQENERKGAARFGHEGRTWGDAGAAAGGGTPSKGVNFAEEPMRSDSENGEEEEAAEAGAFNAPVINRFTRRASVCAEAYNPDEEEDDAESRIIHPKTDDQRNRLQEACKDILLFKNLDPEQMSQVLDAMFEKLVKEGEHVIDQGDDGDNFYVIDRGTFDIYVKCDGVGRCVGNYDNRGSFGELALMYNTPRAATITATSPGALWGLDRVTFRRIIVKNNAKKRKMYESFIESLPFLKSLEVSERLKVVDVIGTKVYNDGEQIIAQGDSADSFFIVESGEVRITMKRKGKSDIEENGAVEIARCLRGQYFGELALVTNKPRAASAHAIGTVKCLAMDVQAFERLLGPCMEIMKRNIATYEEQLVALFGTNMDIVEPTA
From the text: (§1) Peptide libraries were synthesized by means of automatic SPOT synthesis on Whatman 50 cellulose membranes according to standard protocols using Fmoc chemistry and AutoSpot Robot ATE 222 (Intavis Bioanalytical Instruments AG, Cologne). The protective groups of the amino acid side chains were removed using a mixture of trifluoroacetic acid (TFA) in dichloromethane (DCM) (Frank, 1992; Kramer and Schneider-Mergener, 1998). For control, spots (about 50 nmol of peptide per spot) were cut from the cellulose membrane, removed from the membrane by treatment with 0.05 M NaOH, and analyzed using HPLC and MALDI-TOF mass spectrometry.
(§2) • 1. Regulatory RIIα (human) and RIIβ (rat) subunits of PKA, obtained from Prof. Dr. Friedrich W. Herberg, University of Kassel, Germany. • 2. Catalytic subunits of PKA, Promega, Mannheim, Germany, Order No. V5161 • 3. [γ-^32P]ATP, 5000 Ci/mmol, Amersham Biosciences, Brunswick, Germany, Order No. AA0018 • 4. Sephadex G 50, medium Pharmacia, Order No. 17-0043-01 • 5. Phosphate-buffered saline (PBS)
(§3) The ATP concentration was adjusted to 10 μM by addition of non-radioactive ATP (addition of 5 μl of a 1 mM solution). The batch was incubated on ice for another 50 min.
(§4) The reaction was quenched by adding dextran blue and removing free nucleotides. The free ATP was removed on a Sephadex G50 column.
(§5) Non-incorporated nucleotides were separated from the RII subunits by fractionation on Sephadex G 50 columns. • 1. Swelling of the Sephadex G 50 material: 20 g thereof was allowed to swell in 400 ml of PBS at room temperature overnight. Non-settled material was subsequently removed with a Pasteur pipette. The swollen material was aliquoted in 50 ml Falcon tubes and stored at 4° C. For preservation, sodium azide was added to make a final concentration of 0.01%. • 2. The material was poured into a 10 ml sterile disposable pipette sealed with a glass sphere. To settle the column bed, 50 ml of PBS containing 1 mg/ml BSA (bovine serum albumin) was allowed to pass.
(§6) Until used, the column was sealed with parafilm at the top thereof. • 3. The labelled RII subunits (500 μl), together with dextran blue (70 μl of a 20 mg/ml solution), were applied on the column (overall volume=570 μl). • 4. The sample was allowed to migrate into the matrix, followed by filling up with PBS. • 5. A short time before the dextran blue was eluted, collection of fractions was begun (2 fractions of 1.5 ml each, the other fractions 1 ml each). • 6. To determine the incorporation of ^32P, 1% (5.7 μl) of sample upstream of the column (corresponding to 1% of the radioactivity employed) and 3 μl of each fraction were used. • 7. The fractions of the first peak including the probe were combined. The incorporation rate in % was calculated and the specific activity (cpm/μg of protein) was determined.
(§7) • 1. The proteins (40 μg) were separated by means of SDS-PAGE and transferred on a PVDF membrane (PVDF: polyvinylidene fluoride) using a semi-dry electroblotting procedure. The membrane-associated proteins were stained with Ponceau S in order to identify the marker proteins on the membrane. Destaining was effected using TBS. • 2. The membrane was incubated in Blotto/BSA at 4° C. for 16 hours:
(§8) • 3. Blotto/BSA was replaced with fresh one and ^32P-labelled RII subunits were added (10^5 cpm/ml). This was incubated for 4-6 h at room temperature. • 4. The membrane was washed for 4×15 min in Blotto/BSA and for 2×10 min in 10 mM potassium phosphate buffer, pH 7.4, 0.15 M NaCl. • 5. RII-binding proteins were detected by exposition on a phosphoimager plate.
(§9) Identification of AKAP18δ-derived peptides inhibiting the interaction of AKAP proteins with the regulatory RIIα and RIIβ subunits of PKA. A: Peptides derived from the PKA binding domain of AKAP18δ were synthesized on two membranes. The membranes were incubated with radiolabelled regulatory RIIα (upper row) or RIIβ subunits (row below) of the PKA (RII overlay experiment). […]

[2] = target: T2, regulatory RIIα subunits of PKA (Homo sapiens, UniProt P13861); assay: RII overlay of membrane-bound (SPOT) peptides, radiolabelled RIIα as probe, densitometry; type: binding; conditions: for binding to RIIα subunits in RII overlay: human RIIα as probe, in words
T2 construct: Prof; Dr. Friedrich W. Herberg, University of Kassel, Germany (obtained from an academic laboratory, not a vendor)
T2 sequence (P13861 whole entry): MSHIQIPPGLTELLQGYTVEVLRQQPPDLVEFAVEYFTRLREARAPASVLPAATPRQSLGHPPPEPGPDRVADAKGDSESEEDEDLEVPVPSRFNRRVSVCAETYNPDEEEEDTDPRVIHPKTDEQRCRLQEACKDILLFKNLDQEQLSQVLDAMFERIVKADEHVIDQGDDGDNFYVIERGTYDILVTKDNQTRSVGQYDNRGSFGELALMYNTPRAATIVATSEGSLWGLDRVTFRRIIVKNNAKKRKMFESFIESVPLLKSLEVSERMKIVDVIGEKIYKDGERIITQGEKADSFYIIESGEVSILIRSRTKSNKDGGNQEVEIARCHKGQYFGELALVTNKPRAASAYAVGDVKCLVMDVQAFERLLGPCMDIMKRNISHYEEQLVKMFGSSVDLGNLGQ
From the text: as §1, §2, §3, §4, §5, §6, §7, §8, §9

RII subunits of the PKAs = assay: Summary statement on RII binding of AKAP18δ-derived negative control peptides; conditions: negative controls; in words
From the text: They have in common that binding is no longer present due to structural differences (1, 2) or differences in charge (3, 4).

human RIIα subunits = human RIIα subunits (Homo sapiens, UniProt P13861); assay: Surface plasmon resonance measurement of peptide binding to RIIα
human RIIα subunits, sequence (P13861 whole entry): as above

RIIβ subunits from rats = RIIβ subunits from rats (Rattus norvegicus, UniProt P12369); assay: Surface plasmon resonance measurement of peptide binding to RIIβ
RIIβ subunits from rats, sequence (P12369 whole entry): as the sequence (P12369 whole entry) above

[3] = target: T3, regulatory RIIβ subunit of PKA (rat) (rat, UniProt P12369 1-416, 32P-labelled with the catalytic subunit of PKA when used as probe in the RII overlay experiments); assay: RII overlay: SPOT peptide on membrane, 32P-labelled RIIβ probe, phosphoimager, densitometry as % of AKAP18δ-wt
T3 construct: Radiolabelled probe in RII overlays; format in the surface plasmon resonance measurements is not described; also called RIIβ subunit of PKA from rats
T3 sequence (P12369 whole entry): as above

[4] = target: T4, regulatory RIIα subunit of PKA (human) (human, UniProt P13861 1-404, 32P-labelled with the catalytic subunit of PKA when used as probe in the RII overlay experiments); assay: RII overlay: SPOT peptide on membrane, 32P-labelled RIIα probe, phosphoimager, densitometry as % of AKAP18δ-wt
T4 construct: Radiolabelled probe in RII overlays; format in the surface plasmon resonance measurements is not described; also called human RIIα
T4 sequence (P13861 whole entry): as the sequence (P13861 whole entry) above

[5] = target: T4, regulatory RIIα subunit of PKA (human); assay: RII overlay on SPOT membrane with radiolabelled RIIα
[6] = target: T3, regulatory RIIβ subunit of PKA (rat); assay: RII overlay on SPOT membrane with radiolabelled RIIβ
[7] = target: T3, regulatory RIIβ subunit of PKA (rat); assay: surface plasmon resonance

Molecule	binding result [3]	binding result [4]	other results
ANDARLVRLNKRLVENAVLKAVQQY [10/11]	–	–	binding to RIIβ subunits in RII overlay [1]: no RIIβ; binding to RIIα subunits in RII overlay [2]: bind RIIα
ANDARLVRLPKRLVENAVLKAVQQY [10/12]	–	–	binding to RIIβ subunits in RII overlay [1]: no RIIβ; binding to RIIα subunits in RII overlay [2]: bind RIIα
ANDARLVRLSKRLRENAVLKAVQQY [A18δRIIα Hs1]	–	–	binding to RIIα subunits in RII overlay [2]: binding to RIIα
ANDARLVRLSKRLVENAVLKAVQQY [peptide No. 7]	–	–	difference in binding of the two PKA subunits (RIIα vs RIIβ) ([2]; RII overlay on two membranes, quantitative evaluation (FIG. 3)): marked difference
ANDARLVRLSKRLVENAVLKFVQQY [21/4]	–	–	binding to RIIβ subunits in RII overlay [1]: vice versa; binding to RIIβ subunits in RII overlay ([1]; listed as A18δRIIβRn1): binding to RIIβ; binding to RIIβ subunits in RII overlay ([1]; listed as A18δRIIβRnl): selectively binds RIIβ subunits; binding to RIIα subunits in RII overlay [2]: vice versa
ANDARLVRLSKRLYENAVLKAVQQY [A18δRIIα Hs2]	–	–	binding to RIIα subunits in RII overlay [2]: binding to RIIα
PEDAELVRLDKRLPENAPLKAVQQY (also: phosphorylated; listed as Homo sapiens) [AKAP18δ-phos]	–	–	binding of RII subunits of the PKAs (RII subunits of the PKAs): absent binding
PEDAELVRLSKRDVENAVLKAVQQY [AKAP18δ-L308D]	–	–	binding of RII subunits of the PKAs (RII subunits of the PKAs): absent binding; binding to RIIβ subunits in RII overlay [1]: weaker; binding to RIIα subunits in RII overlay [2]: weaker; RIIα binding KD (human RIIα subunits): no binding; RIIβ binding KD (RIIβ subunits from rats): no binding
PEDAELVRLSKRLPENAPLKAVQQY [AKAP18δ-PP]	–	–	binding of RII subunits of the PKAs (RII subunits of the PKAs): absent binding; RIIα binding KD (human RIIα subunits): no binding; RIIβ binding KD (RIIβ subunits from rats): no binding
PEDAELVRLSKRLPENAVLKAVQQY [AKAP18δ-P]	–	–	binding of RII subunits of the PKAs (RII subunits of the PKAs): absent binding; RIIα binding KD (human RIIα subunits): no binding; RIIβ binding KD (RIIβ subunits from rats): no binding
PEDAELVRLSKRLVENAVLKAVQQY [AKAP18δ-wt]	–	–	Kd (human RIIα subunits): 0.4 to 1.5 nM; Kd (RIIβ subunits from rats): 1 to 6 nM
ANDARLVRLSKRLVENAVLKAVQQY (also called peptide 7; No. G) [peptide No. 7 (AKAP18δ-derived, FIG. 3)]	binds	binds	–
ASDARLVRLSKRLVENAVLKAVQQY (AKAP18δ-derived; also called No. H) [Peptide 8]	binds	binds	–
ASDAQLVRLSKRLVENAVLKAVQQY (AKAP18δ-derived; also called No. C) [Peptide 3]	binds	binds	–
ASDAKTVRLSKRLVENAVLKAVQQY (AKAP18δ-derived; also called No. I) [Peptide 9]	binds	binds	–
ANDARLVRLSKRLRENAVLKAVQQY (Member of the substitution library of peptide 7 (row 14, peptide 14); also called No. BB) [A18δRIIαHs1 (14/14)]	–	–	binding result [5]: binds
ANDARLVRLSKRLYENAVLKAVQQY (Member of the substitution library of peptide 7 (row 14, peptide 19); also called No. CC) [A18δRIIαHs2 (14/19)]	–	–	binding result [5]: binds
ANDARLVRLNKRLVENAVLKAVQQY (Member of the substitution library of peptide 7 (row 10, peptide 11); also called peptide 10/11; No. EE) [A18δRIIαRn2 (10/11)]	–	–	binding result [6]: no binding; binding result [5]: binds
PEDAELVRLSKRLVENAVEKAVQQY (also called AKAP18delta-L314E; No. W) [AKAP18δ-L314E]	–	–	Kd [7]: 22 nM

Further lines, with some results ahead:

binding result [3]	binding result [4]	Molecule	other results
binds	binds	ANDAKTERLSQRLVENAVLKAVQQY (AKAP18δ-derived; also called No. K) [Peptide 11]	–
binds	binds	ASDAKLVRLSKRLVENAVLKAVQQY (AKAP18δ-derived; also called No. D) [Peptide 4]	–
binds	binds	ARDAQLVRLSKRLVENAVLKAVQQY (AKAP18δ-derived; also called No. F) [Peptide 6]	–
binds	binds	ARDAKLVRLSKRLVENAVLKAVQQY (AKAP18δ-derived; also called No. E) [Peptide 5]	–
binds	binds	ANDAKTQRLSQRLVENAVLKAVQQY (AKAP18δ-derived; also called No. L) [Peptide 12]	–
binds	binds	ANDAKTERLSKRLVENAVLKAVQQY (AKAP18δ-derived; also called No. J) [Peptide 10]	–
binds	binds	PEDAELVRLSKRLVENAVKNGAQDY (AKAP18δ-derived; also called No. S) [Peptide 19]	–
binds	binds	PEDAELVRLSKRLVENAVLNGVQQY (AKAP18δ-derived; also called No. O) [Peptide 15]	–
binds	binds	PEDAELVRLSKRLVENAVLNGNQQY (AKAP18δ-derived; also called No. Q) [Peptide 17]	–
binds	binds	PEDAELVRLSKRLVENAVLQAVQQY (AKAP18δ-derived; also called No. N) [Peptide 14]	–
binds	binds	PEDAELVRLSKRLVENAVLNGQQQY (AKAP18δ-derived; also called No. P) [Peptide 16]	–
binds	binds	PEDAELVRLSKRLVENAVKNGNQQY (AKAP18δ-derived; also called No. R) [Peptide 18]	–
